For one substance, activity (% decrease in promoter activity) results are on record in patent US5928941.

The series deals with RKLF full length (Homo sapiens). Nature of the series: cell_activity. The conditions noted are these: BAEC cotransfection, CAT repression.

“CAC-tkCAT reporter (single beta-globin CACCC site)” displayed an activity (% decrease in promoter activity) of 90.
